Experimental data as given in PMC10938605 (Science Advances, 2022).
Blank lines part the entries; values can stand above or below the binder they belong to.

Key:
[1] = biological target: T1, purified recombinant GST-tagged CYLD (human, UniProt Q9NQC7 1-956); test: pull-down
T1 sequence (looked up): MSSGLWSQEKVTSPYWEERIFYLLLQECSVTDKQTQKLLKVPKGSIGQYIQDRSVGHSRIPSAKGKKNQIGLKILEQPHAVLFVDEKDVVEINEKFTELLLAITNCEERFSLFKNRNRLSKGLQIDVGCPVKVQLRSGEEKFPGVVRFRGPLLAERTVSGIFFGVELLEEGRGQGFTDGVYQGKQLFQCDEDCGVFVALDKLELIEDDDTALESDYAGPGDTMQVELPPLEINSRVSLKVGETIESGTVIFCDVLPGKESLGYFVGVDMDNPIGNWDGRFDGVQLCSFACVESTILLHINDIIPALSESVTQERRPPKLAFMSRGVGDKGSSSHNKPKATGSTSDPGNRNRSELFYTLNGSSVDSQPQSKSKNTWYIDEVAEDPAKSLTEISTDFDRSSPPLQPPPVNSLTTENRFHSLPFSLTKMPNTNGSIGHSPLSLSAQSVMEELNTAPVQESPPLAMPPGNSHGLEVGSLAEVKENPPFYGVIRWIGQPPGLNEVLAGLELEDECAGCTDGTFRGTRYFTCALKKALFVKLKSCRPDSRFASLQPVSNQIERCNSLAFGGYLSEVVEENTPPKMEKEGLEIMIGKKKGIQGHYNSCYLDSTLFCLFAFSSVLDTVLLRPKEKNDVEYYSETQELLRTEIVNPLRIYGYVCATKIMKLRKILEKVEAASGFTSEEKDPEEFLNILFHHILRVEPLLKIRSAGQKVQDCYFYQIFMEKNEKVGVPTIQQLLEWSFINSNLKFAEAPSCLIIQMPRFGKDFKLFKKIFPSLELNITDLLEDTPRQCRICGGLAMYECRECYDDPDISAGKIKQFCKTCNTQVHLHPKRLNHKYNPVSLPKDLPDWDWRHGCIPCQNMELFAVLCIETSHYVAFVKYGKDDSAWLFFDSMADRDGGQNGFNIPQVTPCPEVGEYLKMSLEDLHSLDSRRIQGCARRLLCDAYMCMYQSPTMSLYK

[2] = biological target: T2, recombinant CYLD WT (GST tag cleaved) (human, UniProt Q9NQC7 1-956); test: pull-down
T2 sequence (looked up): T1 sequence (looked up)

binding result [1]: binds
B1: recombinant PARIS (prey of the reciprocal GST pull-down) (natural protein)
chain: not shown

binding result [2]: binds
B2: purified recombinant GST-tagged PARIS (natural protein)
chain: not shown
